Experiment [1] addresses T1, extracellular portion of human CD155 tagged with His protein at the C terminus (human, UniProt P15151 21-343).
T1 chain: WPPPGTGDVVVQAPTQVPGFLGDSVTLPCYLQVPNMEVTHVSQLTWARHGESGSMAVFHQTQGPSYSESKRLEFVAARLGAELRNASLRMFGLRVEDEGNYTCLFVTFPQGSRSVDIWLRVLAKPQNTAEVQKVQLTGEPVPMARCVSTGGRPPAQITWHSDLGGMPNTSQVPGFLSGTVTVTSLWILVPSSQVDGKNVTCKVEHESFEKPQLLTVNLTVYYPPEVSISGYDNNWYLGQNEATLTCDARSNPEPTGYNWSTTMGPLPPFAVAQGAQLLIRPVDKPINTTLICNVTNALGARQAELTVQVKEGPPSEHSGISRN
The experiment is described as follows: BLI. In general terms: BLI is a label-free optical method that tracks binding on a fibre tip over time.

For experiment [2], the target named is T2, extracellular portion of human CD155 tagged with His protein at the C terminus (human, UniProt P15151 21-343).
T2 construct: human CD155 (poliovirus receptor, nectin-like protein-5), extracellular portion; R&D Systems"); also called sCD155-His; human His-tagged sCD155; source: bought: R&D Systems; not shown: His, C-terminal, kept
T2 sequence (looked up): T1 chain
The experiment is described as follows: BLI; His-tagged recombinant CD155 (20 µg/ml) loaded on a Ni-NTA biosensor; Fc fusion proteins as analytes at three concentrations; kinetics buffer; association 120 s, dissociation 120 s; global mode of BLItz. As to conditions: both partners purified.

Experiment [3] has as its target T3, extracellular portion of mouse CD155 tagged with His protein at the C terminus (mouse).
T3 chain: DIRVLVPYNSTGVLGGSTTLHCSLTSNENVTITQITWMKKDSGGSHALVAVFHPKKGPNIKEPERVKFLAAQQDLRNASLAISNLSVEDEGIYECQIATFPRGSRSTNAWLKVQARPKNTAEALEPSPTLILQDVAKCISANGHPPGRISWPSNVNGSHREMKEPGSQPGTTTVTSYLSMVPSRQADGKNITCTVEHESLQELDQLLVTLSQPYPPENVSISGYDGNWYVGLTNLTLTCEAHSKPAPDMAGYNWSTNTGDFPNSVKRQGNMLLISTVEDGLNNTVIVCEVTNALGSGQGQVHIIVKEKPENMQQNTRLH
The experiment is described as follows: BLI.

The values that follow come from paper PMC7144518, “Tumor-derived soluble CD155 inhibits DNAM-1–mediated antitumor activity of natural killer cells” (The Journal of Experimental Medicine, 2020).

Usually Kd stands for the constant that tells how readily two partners part at equilibrium. A high value points to lower affinity.

B1: human DNAM-1 Fc fusion protein (Fc fusion, UniProt Q15762 19-254, looked up)
chain: EEVLWHTSVPFAENMSLECVYPSMGILTQVEWFKIGTQQDSIAIFSPTHGMVIRKPYAERVYFLNSTMASNNMTLFFRNASEDDVGYYSCSLYTYPQGTWQKVIQVVQSDSFEAAVPSNSHIVSEPGKNVTLTCQPQMTWPVQAVRWEKIQPRQIDLLTYCNLVHGRNFTSKFPRQIVSNCSHGRWSVIVIPDVTVSDSGLYRCYLQASAGENETFVMRLTVAEGKTDNQYTLFVA
notes: human DNAM-1 (DNAX accessory molecule 1, CD226), extracellular portion; source: bought: R&D Systems
Turning to B1, in experiment [1], the Kd came out at 3.56 nM. For the same molecule, the binding result in experiment [2] is given as “binds”.

B2: mouse DNAM-1 Fc fusion protein (Fc fusion)
chain: EETLWDTTVRLSETMTLECVYPLTHNLTQVEWTKNTGTKTVSIAVYNPNHNMHIESNYLHRVHFLNSTVGFRNMSLSFYNASEADIGIYSCLFHAFPNGPWEKKIKVVWSDSFEIAAPSDSYLSAEPGQDVTLTCQLPRTWPVQQVIWEKVQPHQVDILASCNLSQETRYTSKYLRQTRSNCSQGSMKSILIIPNAMAADSGLYRCRSEAITGKNKSFVIRLIITDGGTNKHFILP
For B2, binding in experiment [3] was put at a Kd of 8.83 nM.

B3: human TIGIT Fc fusion protein (Fc fusion, UniProt Q495A1 22-141, looked up)
chain: MMTGTIETTGNISAEKGGSIILQCHLSSTTAQVTQVNWEQQDQLLAICNADLGWHISPSFKDRVAPGPGLGLTLQSLTVNDTGEYFCIYHTYPDGTYTGRIFLEVLESSVAEHGARFQIP
notes: human TIGIT, extracellular portion; source: bought: R&D Systems
The molecule B3 registered a Kd in experiment [1] of 15.2 nM. The binding result in experiment [2] was “binds”.

B4: mouse TIGIT Fc fusion protein (Fc fusion)
chain: TIDTKRNISAEEGGSVILQCHFSSDTAEVTQVDWKQQDQLLAIYSVDLGWHVASVFSDRVVPGPSLGLTFQSLTMNDTGEYFCTYHTYPGGIYKGRIFLKVQESSDDRNGLAQFQTAPLG
Turning to B4, in experiment [3], binding was characterised by a dissociation constant (Kd) of 22.4 nM.

B5: mouse CD96 Fc fusion protein (Fc fusion)
chain: VWEELFNVGDDVYALPGSDINLTCQTKEKNFLVQMQWSKVTDKNDMIALYHPQYGLYCGQEHACESQVAATETEKGVTNWTLYLRNISSALGGKYECIFTLYPEGIKTTVYNLIVEPYTQDEHNYTIEIETNRTLEIPCFQNTSSEIPPRFTFSWLVEKDGVEEVLFTHHHHVNNSTSFKGRIRLGGDYRLHLSPVQIQDDGRTFSCHLTVNPLKAWKMSTTVKVFAKPEILMTVENSTMDVLGERVFTCLLKNVFPKANITWFIDGRFLQGNEEGIYITNEEKNCSSGFWELKSVLTRMHSGPSQSNNMTAWCMALSPGPRNKMWNTSSQPITVSFDSVIAPTKHLPTVTGSTLGTQPFSDAGVSPTGYLATPSVTIVDENGLTPDATPQTSNSSMTTKDGNYLEASSGTDAKNSSRAAASSKSGSWPFPFTSPPEWHSLPGTSTGPQEPDSPVSWIPSEVHTSAPLDASLAPHDTIISTTTEFPNVLTTANGTTKIDHGPITSIIVNQPSDGM
For B5, in experiment [3], the Kd stood at 29.7 nM.
